The target of experiment [1] is T1, Human cytosolic glutamyl-prolyl-tRNA synthetase (human, UniProt P07814 1-1512).
T1 construct: human cytosolic EPRS, gene cloned from the cDNA of HEK293 cells; also called EPRS; source: recombinant from a modified pET28b, purified (Ni-NTA, gel filtration)
In words: pull-down; in vitro assembly of the MSC as in a2 but lacking IRS; anti-Flag beads on MRS-Flag. As to conditions: both partners purified.

Experiment [2] deals with T2, Human cytosolic isoleucyl-tRNA synthetase (human, UniProt P41252 1-1262).
T2 construct: human cytosolic isoleucyl-tRNA synthetase (IRS), gene cloned from the cDNA of HEK293 cells; also called IRS; source: recombinant from a modified pET28b, purified (Ni-NTA, gel filtration)
T2 sequence (looked up): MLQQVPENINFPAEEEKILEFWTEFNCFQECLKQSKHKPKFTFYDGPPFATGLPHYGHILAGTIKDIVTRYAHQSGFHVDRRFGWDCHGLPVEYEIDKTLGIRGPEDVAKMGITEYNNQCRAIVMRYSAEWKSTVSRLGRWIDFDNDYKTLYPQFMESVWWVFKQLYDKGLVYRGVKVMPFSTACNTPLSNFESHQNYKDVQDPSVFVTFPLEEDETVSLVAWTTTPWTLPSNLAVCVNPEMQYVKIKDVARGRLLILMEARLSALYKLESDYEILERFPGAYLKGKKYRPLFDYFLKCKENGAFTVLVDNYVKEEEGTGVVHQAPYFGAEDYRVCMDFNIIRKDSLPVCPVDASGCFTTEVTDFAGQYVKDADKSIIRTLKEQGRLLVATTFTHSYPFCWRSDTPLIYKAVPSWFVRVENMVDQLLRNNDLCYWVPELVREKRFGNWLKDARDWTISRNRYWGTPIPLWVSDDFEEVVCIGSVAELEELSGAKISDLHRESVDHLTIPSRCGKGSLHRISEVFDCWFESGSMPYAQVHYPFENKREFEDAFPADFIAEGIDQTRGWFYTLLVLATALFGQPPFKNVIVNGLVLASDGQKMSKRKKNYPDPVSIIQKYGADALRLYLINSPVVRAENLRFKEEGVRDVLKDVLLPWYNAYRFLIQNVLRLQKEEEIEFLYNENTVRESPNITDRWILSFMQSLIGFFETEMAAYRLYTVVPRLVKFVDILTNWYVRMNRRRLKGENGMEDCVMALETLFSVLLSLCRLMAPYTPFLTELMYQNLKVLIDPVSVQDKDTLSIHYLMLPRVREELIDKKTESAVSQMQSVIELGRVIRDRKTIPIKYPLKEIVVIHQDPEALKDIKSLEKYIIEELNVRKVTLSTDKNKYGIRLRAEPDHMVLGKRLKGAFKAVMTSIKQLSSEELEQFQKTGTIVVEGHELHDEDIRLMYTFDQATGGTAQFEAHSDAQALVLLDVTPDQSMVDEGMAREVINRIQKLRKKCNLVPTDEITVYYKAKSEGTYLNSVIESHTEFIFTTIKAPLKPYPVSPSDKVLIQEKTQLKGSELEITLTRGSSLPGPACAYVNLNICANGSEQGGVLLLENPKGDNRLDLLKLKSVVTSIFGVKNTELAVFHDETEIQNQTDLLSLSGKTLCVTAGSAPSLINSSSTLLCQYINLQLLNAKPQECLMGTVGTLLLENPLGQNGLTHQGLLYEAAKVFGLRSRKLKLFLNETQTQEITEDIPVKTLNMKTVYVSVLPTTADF
The experiment can be described thus: pull-down; in vitro assembly of the MSC as in a2 but lacking hcLRS; anti-Flag beads on MRS-Flag. As to conditions: both partners purified.

Here are results for one molecule from publication PMC7229842, “Molecular basis of the multifaceted functions of human leucyl-tRNA synthetase in protein synthesis and beyond” (Nucleic Acids Research, 2020).

T1 sequence (P07814 whole entry): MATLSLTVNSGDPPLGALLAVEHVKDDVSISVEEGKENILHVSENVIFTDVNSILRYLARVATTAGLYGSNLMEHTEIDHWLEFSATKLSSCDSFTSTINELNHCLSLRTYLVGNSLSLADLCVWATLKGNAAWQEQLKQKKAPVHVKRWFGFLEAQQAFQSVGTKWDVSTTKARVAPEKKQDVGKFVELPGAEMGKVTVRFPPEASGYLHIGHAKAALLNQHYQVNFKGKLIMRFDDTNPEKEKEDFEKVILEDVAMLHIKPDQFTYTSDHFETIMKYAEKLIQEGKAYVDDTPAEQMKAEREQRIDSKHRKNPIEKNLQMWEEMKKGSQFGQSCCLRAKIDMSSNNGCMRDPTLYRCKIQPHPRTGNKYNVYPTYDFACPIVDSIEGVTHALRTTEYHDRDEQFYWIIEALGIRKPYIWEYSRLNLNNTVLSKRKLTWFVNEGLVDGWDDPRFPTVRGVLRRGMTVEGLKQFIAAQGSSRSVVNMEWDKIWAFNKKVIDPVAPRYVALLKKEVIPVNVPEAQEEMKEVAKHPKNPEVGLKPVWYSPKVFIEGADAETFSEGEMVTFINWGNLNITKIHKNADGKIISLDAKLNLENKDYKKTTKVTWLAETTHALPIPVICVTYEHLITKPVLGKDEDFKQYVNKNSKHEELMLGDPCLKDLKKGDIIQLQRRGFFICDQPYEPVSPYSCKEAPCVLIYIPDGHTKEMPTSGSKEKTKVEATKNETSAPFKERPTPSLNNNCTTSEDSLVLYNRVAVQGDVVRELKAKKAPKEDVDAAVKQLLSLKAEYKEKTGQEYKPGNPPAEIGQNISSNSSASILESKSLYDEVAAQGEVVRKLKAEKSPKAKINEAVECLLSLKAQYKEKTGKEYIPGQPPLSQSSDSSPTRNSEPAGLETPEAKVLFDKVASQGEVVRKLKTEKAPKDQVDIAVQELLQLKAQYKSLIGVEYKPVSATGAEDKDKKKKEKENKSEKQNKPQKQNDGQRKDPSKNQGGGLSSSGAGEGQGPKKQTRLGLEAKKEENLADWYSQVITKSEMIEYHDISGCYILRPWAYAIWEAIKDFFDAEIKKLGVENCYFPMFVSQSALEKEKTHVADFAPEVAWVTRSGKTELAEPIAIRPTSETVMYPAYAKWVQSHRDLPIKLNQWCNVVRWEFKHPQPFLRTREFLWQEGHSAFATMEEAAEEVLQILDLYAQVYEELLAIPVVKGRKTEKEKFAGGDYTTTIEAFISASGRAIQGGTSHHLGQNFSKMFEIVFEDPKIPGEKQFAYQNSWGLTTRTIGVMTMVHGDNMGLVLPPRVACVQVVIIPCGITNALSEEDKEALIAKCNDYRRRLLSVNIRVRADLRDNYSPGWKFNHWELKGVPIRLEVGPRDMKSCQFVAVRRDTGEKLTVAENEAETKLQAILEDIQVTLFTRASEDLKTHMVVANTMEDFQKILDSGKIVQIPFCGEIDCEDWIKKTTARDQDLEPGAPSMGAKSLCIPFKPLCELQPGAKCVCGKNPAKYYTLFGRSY

B1: MRS-AIMP3 complex (human cytosolic methionyl-tRNA synthetase co-expressed with AIMP3) (complex)
chain 1: MRLFVSDGVPGCLPVLAAAGRARGRAEVLISTVGPEDCVVPFLTRPKVPVLQLDSGNYLFSTSAICRYFFLLSGWEQDDLTNQWLEWEATELQPALSAALYYLVVQGKKGEDVLGSVRRALTHIDHSLSRQNCPFLAGETESLADIVLWGALYPLLQDPAYLPEELSALHSWFQTLSTQEPCQRAAETVLKQQGVLALRPYLQKQPQPSPAEGRAVTNEPEEEELATLSEEEIAMAVTAWEKGLESLPPLRPQQNPVLPVAGERNVLITSALPYVNNVPHLGNIIGCVLSADVFARYSRLRQWNTLYLCGTDEYGTATETKALEEGLTPQEICDKYHIIHADIYRWFNISFDIFGRTTTPQQTKITQDIFQQLLKRGFVLQDTVEQLRCEHCARFLADRFVEGVCPFCGYEEARGDQCDKCGKLINAVELKKPQCKVCRSCPVVQSSQHLFLDLPKLEKRLEEWLGRTLPGSDWTPNAQFITRSWLRDGLKPRCITRDLKWGTPVPLEGFEDKVFYVWFDATIGYLSITANYTDQWERWWKNPEQVDLYQFMAKDNVPFHSLVFPCSALGAEDNYTLVSHLIATEYLNYEDGKFSKSRGVGVFGDMAQDTGIPADIWRFYLLYIRPEGQDSAFSWTDLLLKNNSELLNNLGNFINRAGMFVSKFFGGYVPEMVLTPDDQRLLAHVTLELQHYHQLLEKVRIRDALRSILTISRHGNQYIQVNEPWKRIKGSEADRQRAGTVTGLAVNIAALLSVMLQPYMPTVSATIQAQLQLPPPACSILLTNFLCTLPAGHQIGTVSPLFQKLENDQIESLRQRFGGGQAKTSPKPAVVETVTTAKPQQIQALMDEVTKQGNIVRELKAQKADKNEVAAEVAKLLDLKKQLAVAEGKPPEAPKGKKKK
chain 2: MAAAAELSLLEKSLGLSKGNKYSAQGERQIPVLQTNNGPSLTGLTTIAAHLVKQANKEYLLGSTAEEKAIVQQWLEYRVTQVDGHSSKNDIHTLLKDLNSYLEDKVYLTGYNFTLADILLYYGLHRFIVDLTVQEKEKYLNVSRWFCHIQHYPGIRQHLSSVVFIKNRLYTNSH
notes: human cytosolic methionyl-tRNA synthetase (MRS), gene cloned from the cDNA of HEK293 cells; Only MRS carries the Flag tag; It is the bait of the anti-Flag pull-down of the assembled MSC; source: co-expressed from a modified pETDuet-1, purified (Ni-NTA, gel filtration); not shown: Flag, C-terminal, kept
Consider B1, for which the binding result in experiment [1] and in experiment [2] was “binds” in each case.
